# Data: patent US10239925B2, “Peptides and combination of peptides for use in immunotherapy against ovarian cancer and other cancers” (IMMATICS BIOTECHNOLOGIES GMBH, priority 2015, dated 2019)
# Biological target: HLA-A*02:01 (Homo sapiens, UniProt P04439, D140Y/D185E/D98H/E176V/E277Q/G131W/G231S/I119V/I121R/I166T/I218V/L300P/L318F/N151K/N90K/P208A/P217A/Q86G/Q94H/R138H/R169H/T345S)
# Assay: MHC binding assay (UV-ligand exchange, anti-β2m ELISA, peptide exchange yield)
# Conditions: binding to HLA-A*02:01
# Procedure, shortened: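 Yield of stabilized complexes quantified via the β2m light chain in an ELISA (streptavidin capture, 100-fold diluted monomers, HRP anti-β2m 2 ug/ml at 37 °C, TMB, A450). The complexes come from UV-triggered replacement of a photocleavable ligand by the candidate peptide.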
row,Substance,"Peptide exchange (MHC class I binding score, peptide exchange yield)"
1,386 (ILFRYPLTI; listed as Homo sapiens) [compound 386],“+++” (>50 = +++)
2,387 (ALFQATAEV; listed as Homo sapiens) [compound 387],“++++” (>75% = ++++)
3,388 (SLTIDGIRYV; listed as Homo sapiens) [compound 388],“+++” (>50 = +++)
4,389 (LLADVTHLL; listed as Homo sapiens) [compound 389],“++” (>20% = ++)
5,390 (ALFMKQIYL; listed as Homo sapiens) [compound 390],“+++” (>50 = +++)
6,391 (YVYPQRLNFV; listed as Homo sapiens) [compound 391],“+++” (>50 = +++)
7,392 (ALLHPQGFEV; listed as Homo sapiens) [compound 392],“++” (>20% = ++)
8,393 (GLLDTQTSQVLTA; listed as Homo sapiens) [compound 393],“++” (>20% = ++)
9,394 (LLAVIGGLVYL; listed as Homo sapiens) [compound 394],“+++” (>50 = +++)
10,396 (ALLPDLPAL; listed as Homo sapiens) [compound 396],“+++” (>50 = +++)
11,397 (YLFGERLLEC; listed as Homo sapiens) [compound 397],“+++” (>50 = +++)
12,398 (KLLEEDGTIITL; listed as Homo sapiens) [compound 398],“++” (>20% = ++)
13,399 (YLFEPLYHV; listed as Homo sapiens) [compound 399],“+++” (>50 = +++)
14,400 (SLLTEQDLWTV; listed as Homo sapiens) [compound 400],“++” (>20% = ++)
15,401 (ILLDDTGLAYI; listed as Homo sapiens) [compound 401],“+++” (>50 = +++)
16,402 (VLFSGALLGL; listed as Homo sapiens) [compound 402],“++” (>20% = ++)
17,403 (KLYDRILRV; listed as Homo sapiens) [compound 403],“++” (>20% = ++)
18,405 (ALYDVFLEV; listed as Homo sapiens) [compound 405],“++” (>20% = ++)
19,407 (YLMDLINFL; listed as Homo sapiens) [compound 407],“+++” (>50 = +++)
20,408 (VLDDSIYLV; listed as Homo sapiens) [compound 408],“++” (>20% = ++)
21,409 (LLDAMNYHL; listed as Homo sapiens) [compound 409],“++” (>20% = ++)
22,412 (YLDDLNEGVYI; listed as Homo sapiens) [compound 412],“++” (>20% = ++)

row,Substance,"Peptide exchange (MHC class I binding score, peptide exchange yield)"
1,426 (RLADKSVLV; listed as Homo sapiens) [compound 426],“+++” (>50 = +++)
2,427 (ALLPLSPYL; listed as Homo sapiens) [compound 427],“+++” (>50 = +++)
3,428 (KLGHTDILVGV; listed as Homo sapiens) [compound 428],“++” (>20% = ++)
4,429 (GLVNDLARV; listed as Homo sapiens) [compound 429],“++” (>20% = ++)
5,430 (HLYSSIEHLTT; listed as Homo sapiens) [compound 430],“+++” (>50 = +++)
6,431 (SLVNVVPKL; listed as Homo sapiens) [compound 431],“++” (>20% = ++)
7,432 (TLIEESAKV; listed as Homo sapiens) [compound 432],“++” (>20% = ++)
8,433 (AMLNEPWAV; listed as Homo sapiens) [compound 433],“+++” (>50 = +++)
9,434 (KVSNSGITRV; listed as Homo sapiens) [compound 434],“++” (>20% = ++)
10,436 (HLAEVSAEV; listed as Homo sapiens) [compound 436],“+++” (>50 = +++)
11,437 (SMAPGLVIQAV; listed as Homo sapiens) [compound 437],“+++” (>50 = +++)
12,438 (KLLPLAGLYL; listed as Homo sapiens) [compound 438],“++++” (>75% = ++++)
13,439 (YLLQEIYGI; listed as Homo sapiens) [compound 439],“+++” (>50 = +++)
14,440 (ALADGVTMQV; listed as Homo sapiens) [compound 440],“++” (>20% = ++)
15,441 (ALLENPKMEL; listed as Homo sapiens) [compound 441],“+++” (>50 = +++)
16,442 (GLLGGGGVLGV; listed as Homo sapiens) [compound 442],“+++” (>50 = +++)
17,444 (GLLRDEALAEV; listed as Homo sapiens) [compound 444],“+++” (>50 = +++)
18,447 (QLVPALAKV; listed as Homo sapiens) [compound 447],“++” (>20% = ++)
19,448 (NLLETKLQL; listed as Homo sapiens) [compound 448],“+++” (>50 = +++)
20,449 (KLAEGLDIQL; listed as Homo sapiens) [compound 449],“+++” (>50 = +++)
21,450 (FMIDASVHPTL; listed as Homo sapiens) [compound 450],“+++” (>50 = +++)
22,451 (LLLLDTVTMQV; listed as Homo sapiens) [compound 451],“++” (>20% = ++)

row,Substance,"Peptide exchange (MHC class I binding score, peptide exchange yield)"
1,452 (ILLEHGADPNL; listed as Homo sapiens) [compound 452],“+++” (>50 = +++)
2,453 (KLLEATSAV; listed as Homo sapiens) [compound 453],“++” (>20% = ++)
3,455 (SLLKEPQKVQL; listed as Homo sapiens) [compound 455],“++” (>20% = ++)
4,456 (LLIGHLERV; listed as Homo sapiens) [compound 456],“+++” (>50 = +++)
5,457 (SLLPGNLVEKV; listed as Homo sapiens) [compound 457],“+++” (>50 = +++)
6,458 (SLIDKLYNI; listed as Homo sapiens) [compound 458],“++” (>20% = ++)
7,459 (ALITEVVRL; listed as Homo sapiens) [compound 459],“++” (>20% = ++)
8,461 (VMFRTPLASV; listed as Homo sapiens) [compound 461],“++” (>20% = ++)
9,462 (KLAKQPETV; listed as Homo sapiens) [compound 462],“+++” (>50 = +++)
10,464 (ALNDCIYSV; listed as Homo sapiens) [compound 464],“+++” (>50 = +++)
11,465 (QLCDLNAEL; listed as Homo sapiens) [compound 465],“+++” (>50 = +++)
12,466 (VLIANLEKL; listed as Homo sapiens) [compound 466],“++++” (>75% = ++++)
13,467 (FLAKDFNFL; listed as Homo sapiens) [compound 467],“+++” (>50 = +++)
14,468 (YLRSVGDGETV; listed as Homo sapiens) [compound 468],“+++” (>50 = +++)
15,469 (YLASDEITTV; listed as Homo sapiens) [compound 469],“+++” (>50 = +++)
16,471 (YLYNNMIAKI; listed as Homo sapiens) [compound 471],“+++” (>50 = +++)
17,472 (KLLEVSDDPQV; listed as Homo sapiens) [compound 472],“+++” (>50 = +++)
18,473 (AMATESILHFA; listed as Homo sapiens) [compound 473],“+++” (>50 = +++)
19,474 (YLDPALELGPRNV; listed as Homo sapiens) [compound 474],“+++” (>50 = +++)
20,475 (LLLNEEALAQI; listed as Homo sapiens) [compound 475],“+++” (>50 = +++)
21,476 (ALMERTGYSMV; listed as Homo sapiens) [compound 476],“+++” (>50 = +++)
22,477 (ALLPASGQIAL; listed as Homo sapiens) [compound 477],“+++” (>50 = +++)
